Assay [1] has as its target EGFR on EGFR-bearing tumor cells (human) (UniProt P00533). The assay is described as follows: flow cytometry, crude bacterial supernatant on HT29 cells, positive control.
The target is the same in assay [2]. The assay is described as follows: flow cytometry, crude bacterial supernatant on MDA MB 231 cells, positive control.
For assay [3] the target is unchanged. Kind of assay: flow cytometry, crude bacterial supernatant on A431 cells, positive control. In general terms: In flow cytometry, cells or beads pass a laser one at a time.

With scFv derived from MAb 425, the mean fluorescence (cytometric analysis) (arbitrary fluorescence units) in assay [1] was 2.5; in assay [2] it was 21.3; in assay [3] it was 85.5.
